Key:
[1] = biological target: T1, BoNT/B light chain (recombinant) (Clostridium botulinum, UniProt P10844 1-441); experiment: yeast scFv FACS
T1 sequence: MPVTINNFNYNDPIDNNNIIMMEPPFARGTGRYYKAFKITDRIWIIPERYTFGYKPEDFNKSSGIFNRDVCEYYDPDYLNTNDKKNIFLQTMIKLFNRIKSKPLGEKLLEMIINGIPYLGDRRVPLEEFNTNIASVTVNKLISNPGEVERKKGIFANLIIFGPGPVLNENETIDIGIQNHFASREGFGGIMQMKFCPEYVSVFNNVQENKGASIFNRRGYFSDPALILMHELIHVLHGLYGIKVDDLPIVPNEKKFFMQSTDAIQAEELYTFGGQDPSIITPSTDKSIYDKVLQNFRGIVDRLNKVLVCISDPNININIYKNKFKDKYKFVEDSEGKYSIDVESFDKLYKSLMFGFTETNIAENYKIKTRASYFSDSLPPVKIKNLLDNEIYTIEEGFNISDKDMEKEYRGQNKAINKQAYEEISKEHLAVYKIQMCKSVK

BoNT/B1 = biological target: T2, BoNT/B1 (Clostridium botulinum, UniProt P10844 2-1291); experiment: yeast scFv FACS
T2 sequence: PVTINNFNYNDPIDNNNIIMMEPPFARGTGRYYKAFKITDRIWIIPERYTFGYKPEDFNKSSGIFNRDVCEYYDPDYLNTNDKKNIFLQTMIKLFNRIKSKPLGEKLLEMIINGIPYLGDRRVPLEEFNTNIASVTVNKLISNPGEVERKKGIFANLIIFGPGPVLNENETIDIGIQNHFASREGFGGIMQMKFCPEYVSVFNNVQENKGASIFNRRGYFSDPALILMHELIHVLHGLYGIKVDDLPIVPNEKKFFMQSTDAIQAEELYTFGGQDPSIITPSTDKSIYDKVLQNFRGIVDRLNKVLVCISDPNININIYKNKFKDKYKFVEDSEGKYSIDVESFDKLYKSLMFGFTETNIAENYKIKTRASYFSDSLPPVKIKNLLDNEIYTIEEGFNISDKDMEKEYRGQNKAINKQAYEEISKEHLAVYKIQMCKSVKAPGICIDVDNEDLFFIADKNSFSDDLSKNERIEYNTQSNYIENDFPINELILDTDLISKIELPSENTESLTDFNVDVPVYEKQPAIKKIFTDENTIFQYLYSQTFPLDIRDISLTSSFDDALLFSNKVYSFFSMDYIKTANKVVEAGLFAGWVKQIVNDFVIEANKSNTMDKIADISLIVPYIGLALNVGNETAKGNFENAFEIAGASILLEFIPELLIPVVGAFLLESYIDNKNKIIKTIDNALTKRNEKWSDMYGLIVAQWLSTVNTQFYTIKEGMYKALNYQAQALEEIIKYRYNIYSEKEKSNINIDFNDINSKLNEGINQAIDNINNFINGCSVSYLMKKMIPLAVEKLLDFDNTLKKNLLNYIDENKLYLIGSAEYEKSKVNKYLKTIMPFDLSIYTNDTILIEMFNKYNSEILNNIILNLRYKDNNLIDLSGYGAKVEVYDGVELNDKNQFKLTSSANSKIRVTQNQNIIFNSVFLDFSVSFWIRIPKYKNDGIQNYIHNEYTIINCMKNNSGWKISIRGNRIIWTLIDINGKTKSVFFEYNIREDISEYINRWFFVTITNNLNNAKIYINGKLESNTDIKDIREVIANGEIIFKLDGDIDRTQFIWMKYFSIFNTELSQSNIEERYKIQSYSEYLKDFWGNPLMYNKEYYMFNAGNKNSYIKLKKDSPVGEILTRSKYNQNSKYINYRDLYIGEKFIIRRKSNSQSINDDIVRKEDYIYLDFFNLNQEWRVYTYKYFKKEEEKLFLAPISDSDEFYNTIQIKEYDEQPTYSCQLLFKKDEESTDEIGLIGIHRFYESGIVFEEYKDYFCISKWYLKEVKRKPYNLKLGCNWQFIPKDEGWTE

[2] = biological target: T3, BoNT/F1 (proteolytic BoNT/F) (Clostridium botulinum, UniProt A7GBG3 1-1278); experiment: IgG
T3 sequence: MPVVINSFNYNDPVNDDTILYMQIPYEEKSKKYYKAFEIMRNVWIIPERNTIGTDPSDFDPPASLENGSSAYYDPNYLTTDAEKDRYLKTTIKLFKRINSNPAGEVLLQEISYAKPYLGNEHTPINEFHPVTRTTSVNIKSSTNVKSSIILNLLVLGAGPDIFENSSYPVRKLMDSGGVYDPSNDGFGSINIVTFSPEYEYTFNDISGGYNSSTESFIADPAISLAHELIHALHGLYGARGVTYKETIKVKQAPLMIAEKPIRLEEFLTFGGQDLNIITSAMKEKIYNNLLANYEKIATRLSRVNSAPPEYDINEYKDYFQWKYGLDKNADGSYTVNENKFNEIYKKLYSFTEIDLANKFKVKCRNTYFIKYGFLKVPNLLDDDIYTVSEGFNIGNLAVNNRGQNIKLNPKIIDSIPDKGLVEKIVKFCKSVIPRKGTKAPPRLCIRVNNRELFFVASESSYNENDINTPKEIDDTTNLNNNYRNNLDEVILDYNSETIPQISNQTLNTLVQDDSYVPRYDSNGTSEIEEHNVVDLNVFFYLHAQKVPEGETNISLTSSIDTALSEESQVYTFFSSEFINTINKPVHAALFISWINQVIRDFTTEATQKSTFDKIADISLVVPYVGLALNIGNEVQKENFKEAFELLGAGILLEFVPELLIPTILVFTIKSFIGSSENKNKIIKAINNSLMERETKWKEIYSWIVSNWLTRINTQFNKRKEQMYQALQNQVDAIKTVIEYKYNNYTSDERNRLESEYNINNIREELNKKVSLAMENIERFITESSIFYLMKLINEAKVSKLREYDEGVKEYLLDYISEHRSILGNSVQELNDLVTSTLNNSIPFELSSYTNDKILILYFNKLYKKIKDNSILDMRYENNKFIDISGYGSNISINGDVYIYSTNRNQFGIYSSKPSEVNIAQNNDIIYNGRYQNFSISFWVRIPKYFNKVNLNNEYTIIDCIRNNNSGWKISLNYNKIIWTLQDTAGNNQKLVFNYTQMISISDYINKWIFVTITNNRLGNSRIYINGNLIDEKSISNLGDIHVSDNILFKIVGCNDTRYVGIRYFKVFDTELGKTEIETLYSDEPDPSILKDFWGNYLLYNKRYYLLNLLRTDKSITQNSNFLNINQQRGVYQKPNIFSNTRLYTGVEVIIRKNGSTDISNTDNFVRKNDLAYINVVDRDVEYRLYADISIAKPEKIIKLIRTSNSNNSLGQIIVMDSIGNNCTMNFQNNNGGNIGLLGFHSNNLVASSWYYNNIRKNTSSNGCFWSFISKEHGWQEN

B1: 18D10 scFv (scFv)
scFv: QVQLKQSGIEVMKPGASVKLSCKASGYPFTAYWIEWVKQRPGHGLEWIGEFLPGGISTNFNEKFKGKATFSADTSSNSAYIQLNSLTTEDSAIYYCVLTGTGFDYWGQGTSVTVSSVDLKSGGSTSGSGKPGSGEGSSGSARENVLTQSPAIMSASPGEKVTMTCSASSSVSYMHWYQQKSGTSPKRWIYDTSKLASGVPARFSGSGSGTSYSLTISSMEAEDAATYYCQQWSSNPLTFGAGTKLELK
notes: mouse
- Kd [1]: 7.53 nM
- Kd (BoNT/B1): 5.97 nM

B2: 18A6 scFv (scFv)
scFv: EVQLQQSGPELVKPGASVKISCKASGYTFTDNYINWVKQRPGQGLEWIGWIYPGSGNTKYNEKFKGKATLTVDTSSNTAYMQLTGLASDDSAVYFCARVNFYVSWDYWGQGTSVTVSSVDLKSGGSTSGSGKPGSGEGSSGSAREIVLTQSPAIMSASPGEKVTMTCSASSSISYMHWFQQKPGMSPKRRIFDTSKLASGVPARFSGSGSGTSYSLTISSMEAEDAGTYYCHQRSSYPFTFGGGTKLELK
notes: mouse
- Kd [1]: 4.21 nM
- Kd (BoNT/B1): 14.5 nM

B3: 16B3 scFv (scFv)
scFv: EVQLQQSGPELVKPGASVKITCKASGYTFTDNNMDWVKQSHGKSLEWIGDINPNNGGSIYNQKFKGKASLTLDKSSSTAYMELRSLTSEDTAVYYCARWGYYGSLAYWGQGTLVTVSSVDLKSGGSTSGSGKPGSGEGSSGSARQNVLTQSPAIMSASPGEKVTMTCSASSSVSSRYLHWYQQKSGASPKLWIYGTSNLASGVPARFSGSGSGTSYSLTISSVEAEDAATYYCQQYHSDPLTFGGGTKLEIK
notes: mouse
- Kd [1]: 0.84 nM
- Kd (BoNT/B1): 1.01 nM

B4: 6F4 IgG (antibody, V domains shown)
VH: EVQLQESGPELVKPGASVKISCKTSGYTFTDYYMNWVKQSHGKSLEWIGDINPNNGGATYNQKFKGKATLTVDKSSRTLYMELRSLTSEDSAVYHCACGPYFFDFWGQGTTLTVSS
VL: QIVLTQSPATMSASPGEKVTITCSASSSVNYMHWYQQKPGSSPKLWIYDTSSLAPGVPARFSGSGSGTSYSLTISSMEAEDAASYFCHQWSSYPYTFGGGTKLEIK
notes: IgG from scFv V genes
- Kd [2]: 1.17 nM

B5: 16D5 scFv (scFv)
scFv: EVKLVESGAELVRPGASVKLSCTPSGFNIKDDYMHWVKQRPEQGLEWIGRIDPANGNTRYAPKFQDKATLTADTSSNTAYLHLTSLTSEDTAVYYCARSYYRAWFDYWGQGTLVTVSSVDLKSGGSTSGSGKPGSGEGSSGSARQIVLTQSPATLSVTPGDSVSLSCRASQSISNNLHWYQQKSHESPRLLIKYASQSISGIPSRFSGSGSGTDFTLSINSVETEDFGMYFCQQSNSWPLTFGAGTRLEIK
notes: mouse
- Kd [1]: 1.8 nM
- Kd (BoNT/B1): 7.57 nM

B6: 18E5 scFv (scFv)
scFv: EVQLQESGPELVKPGASVKISCKASGYTFTDHNMDWVKQSLGKSLEWIGDINPNNGGAVYNQNFKGKATLTVDKSSSTAYMELRSLTSEDTAVYYCARYGYYGYFDYWGQGTTLTVSSVDLKSGGSTSGSGKPGSGEGSSGSARQIVLTQSPAIMSASPGEKVTMTCRASSSVSSSYLHWYQQKPGSSPKLWIYSTSNLASGVPARFSGSGSGTSYSLTISSVEAEDAATYYCQQYDSSPSTFGAGTKLEIK
notes: mouse
- Kd [1]: 1 nM
- Kd (BoNT/B1): 1.33 nM

B7: 19B6 scFv (scFv)
scFv: QVQLQQSGAELVKPGASVKISCKASGYTFTDNYINWVKQRPGQGLEWIGWIHPGSGNAKYNEKFRAKATLTVDTSSNTAYMQLSSLTSEDSAVYFCARVGFRVNFDYWGQGTTLTVSSVDLKSGGSTSGSGKPGSGEGSSGSARQIVLTQSPAIMSASPGEKVTMTCSASSSLSYVHWYQQKPGSSPKPWIYATSNLVSGVPARFSGSRSGTSYSLTISSMEAEDAATYYCQQWSSYPPTFGAGTKLEIK
notes: mouse
- Kd [1]: 2.35 nM
- Kd (BoNT/B1): 19.7 nM

B8: 6F5 IgG (antibody, V domains shown)
VH: EVQLVQSGGNLVQPGGSLRLSCAATGPIGSHWMTWVRQAPGQGLEWVANINLDGTEKFYVDSVKGRFTVSRDNRKSSVFLQMNNLRVDDTAVYYCARLQWGGYNGWLSPWGQGTLVTVSS
VL: DIEMTQSPPSLSASVGDRVSLTCRASEYIGTSLNWYQQKPGKAPKLLIYAASALHSGVPSRFSGSGSGTDFTLTISGLQPEDFATYYCQQANDLPLTFGGGTKLEIK
- Kd [2]: 0.66 nM

B9: 6F3 IgG (antibody, V domains shown)
VH: QVQLQQSGPEVVKPGASVKISCKASGYTFADYWIGWTKQGPGHGLEWIGHIYPGGGYINYNEKFKGKATLTADMSSSTAYMQFSSLTSEDSAIYYCARVTMVESGDWYFDVWGTGTTVTVSS
VL: ENVLTQSPAIMSASLGEEITLTCSASSSVSYMHWYQQKSGTSPKLWIYYTSNLASGVPARFSGSGSGTSYSLTISSMEAEDAATYYCQQWSSNPYTFGGGTKLEIK
notes: IgG from scFv V genes
- Kd [2]: 2.39 nM

B10: 6F6 IgG (antibody, V domains shown)
VH: EVQLLESGGGLVKPGGSRKLSCEASGFTFSDYGMHWVRQAPEKGLEWVGYISSGSRIIYYADTVKGRITISRDNAKNTLFLQMTSLRSEDTAMYYCVRGTWVFDYWGQGTTLTVSS
VL: DIVMTQSPASLAVSLGQRATISCRASESVDNYGISFMNWFQQKPGQPPKLLIYAASNLESGIPARFSGSGSGTDFTLTINPVEADDVATYYCQQSNEDPYTFGGGTKLEIK
notes: IgG from scFv V genes
- Kd [2]: 0.048 nM

B11: 6F7 IgG (antibody, V domains shown)
VH: QVQLQESGPGLVKPSQTVSLTCTVAGYSITNGNHWWNWIRQVSGSKLEWIGYITSSGSTDSNPSLKSRISITRDTSKNQLFLQLNSVTTEDIATYYCARSSNYFFHVLDYWGQGTSVTVSS
VL: DIVLTQTPAIMSASPGEKVTMTCSASSSVSYMHWFQQKPGTSPKLWIYSTSNLASGVPARFSGSGSGTSYSLTISRMEAEDAATYYCQQRSSYPPTFGGGTRLEIK
notes: IgG from scFv V genes
- Kd [2]: 0.57 nM

Reference: US20220089784A1 (University of California, published 2022)
